Among the data in a protein production outcome set (Wang et al. 2014) are protein production values, retold here.

The nature of this data set: label from the status in PepcDB records.
Turning to “MSLSDQEFDEKYLELSEELKQSEKHKGTLDQGASQFLNAIEFVLRVYRQTEVIYVYAHLKNDQDTGNTDYQALYARASSLFSKVSEAVSWFEPEILQLSDDQIWQYFKEEPKLEVYRHYIQQIVDNRAHVLSAEQESLLAGAGEIFDASSDTFAVLNNADLVFPTIEGENGEIVQLSHGVYGQLLESTDRRVREAAFKGLYSVYEQFRNTFASTLGTHIKGHNFKAKVRNYSSAREASLSNNHIPESVYDTLVDVVNKHLPLLHRYMELRKRLLEVEKLHMYDLYTPVLGEAPITFTYEEAKEKALEALKPMGEEYMAIVEKAFSERWIDVVENKGKRSGAYSSGSYDTNPYILLNWHDTLDQLFTLVHEMGHSVHSYFTRSNQPYVYGDYSIFLAEIASTTNENILTEYLLETEKDPRVRAYVLNHYLDGFKGTVFRQTQFAEFEHFMHTEDEKGVPLTSEYLSDSYGKLNAKYYGPAVEEDPEIKFEWSRIPHFYYNYYVFQYSTGFSAASALAKKILNQEPEALENYLAYLKAGNSDYPVEVMKKAGVDMTQAAYIEDAMSMFEQRLNELEELIDREGHHHHHH”, the protein production entry was “not failed”. Turning to “MGNCCVSSGTTDRENENVSDKNTTIVEEETVVKEVLSETTLFTPSSSFRTSTFKDPVKTKIREDEEKKPGFLKMASDPVLIRPGSVDPEEGSEVSEICSLSLSESVSSTVVMNGYDEEHVMMKQRKSQRSPAKTRTQVTGNNYPTRRTDQSPRKRNNGTCNGARYGSGVRDPGERSGRRSRSPATNRSVMDSNQSSRVGGAKTRKNNQSPGRVRLDPAKNGLDQQQHQNYGYTTEELLENPLVSLECFIFL”, the protein production result is listed as “failed”. Consider “MERIRWLYGFLACILIAILLAPLQIMAQGEFRTSDQPLVYYIPVEQEVERGLEAFLQRSLDSAVEEGADHIVLEINTPGGRVDAAGNMARALRETDIPITAYVIDQALSAGAYIALNADEIVMAPGSTMGSAAVIDSAGNAADEKAQSYWLAEMRNAAEYNDRDPKYALAMADRSIEIPELDISNEELLTLTASQALEVNYAEAIASNRAELLEHLQIDNAFEQEMEVSFAEKLARFVTNPLIIPILLSIGSLGLVLELYSPGFGVPGIMGISALLLFFFGHLIAGFAGYEAMILFIAGFLLILIEVFMPGFGLFGILGIAGMIGGMLLASFSTAWMLVSLGISAVVTTVVAIITFRYFGSRGPWKKMILTESTSSEKGYITNETRQELVGLIGQSLTPLRPSGSGLFGEERLDVVSEGGYIEQGRKIKVVSTSGSRIVVRETDELEHHHHHH”, for which the protein production result is “failed”.

Take “TERMDKVGDALEEVLSKALSQRTITVGVYEAAKLLNVDPDNVVLCLLAADEDDDRDVALQIHFTLIQAFCCENDINILRVSNPGRLAELLLLETDAGPAASEGAEQPPDLHCVLVTNPHSSQWKDPALSQLICFCRESRYMDQWVPVINLPER”: the protein production entry is “failed”. Turning to “MYNSATVIYQNLLKSTPKKASEYYYYLGDICWRKEKTDSAKYYFMEGIKTDETYAMNYVGIGIITMKSNATEGQRSFDKALQMTSQKNSQVLNAIGEYYILEADKAELPKGIALLKKSTEIDAKNAMSWILLGDAYGKQAEGSKQAESYGKAANLFHSVPLLKMKYGKMYAAARNKDLSIKYYNEGLAADPTYGPIYRELGDLYNRFRQYDLAIQNYKKYLTYIDSNDDVEFRYADFLFKNNNYAEAIEVFNKLEAKKYNSPYIYNRRAVCYYELAKYDLAQKDIETYFSKVNATKAKSADFEYYGKILMKKGQDSLAIQQYQAAVDRDTTRLDMYGQIGSYFYNKGNFPLAIQYMSKQIRPTTTDPKVFYELGQAYYYNKEYVKADSSFVKVLELKPNIYIGYLWRARANAAQDPDTKQGLAKPYYEKLIEVCAPGGAKYKDELIEANEYIAYYYTINRDKVKADAAWKNILALDPTNKKAIDGLKMK”, the protein production entry is given as “failed”. As to “MSVPQRPHQFVLTLSCPSAAGQVAAVVGLLDRHRCYVDELTVFDDDLSARFFVRCVFHATDDADALRVDALRREFEPIAERFRMQWAIHDVAARPKVLIMVSKLEHCLADLLFRWKMGELKMDIVGIVSNHPDFAPLAAQHGLPFRHFPITADTKAQQEAQWLDVFETSGAELVILARYMQVLSPEASARLANRAINIHHSFLPGFKGAKPYHQAHARGVKLIGATAHFVTDDLDEGPIIEQVVERVDHSYRPEQLLAVGRDVECITLARAVKAFIERRVFLNGDRTVVFQ”, the protein production entry is “not failed”.

With “MLFDTSPKDNRKDFFDREKEIEKLKGLRAPITLVLGLRRTGKSSIIKIGINELNLPYIYLDLRKFEERNYISYKDFLLELQKEINKLVKRLPSLLKALKNIQGIVIMGNEIKFNWNRKDRLSFANLLESFEQASKDNVIIVLDEAQELVKLRGVNLLPALAYAYDNLKRIKFIMSGSEMGLLYDYLRVEDPESPLFGRAFSTVELKPFSREEAIEFLRRGFQEADIDFKDYEVVYEKIGGIPGWLTYFGFIYLDNKNLDFAINQTLEYAKKLILKEFENFLHGREIARKRYLNIMRTLSKCGKWSDVKRALELEEGIEISDSEIYNYLTQLTKHSWIIKEGEKYCPSEPLISLAFS”, the protein production result is recorded as “not failed”.

For the sequence “MFENFSPSTMLAIKKYAYWLWLLLALSMPFNYWMAQDSAHPAFWAFSLVIAVFGIGPLLDMLFGRDPANPDEETQTPQLLGQGYYVLLTLATVPVLIGTLVWAAGVFVAFQEWGWLGRLGWILSMGTVMGAVGIVVAHELIHKDSALEQAAGGILLAAVCYAGFKVEHVRGHHVHVSTPEDASSARFGQSVYQFLPHAYKYNFLNAWRLEAVRLRKKGLPVFGWQNELIWWYLLSLALLVGFGWAFGWLGMVFFLGQAFVAVTLLEIINYVEHYGLHRRKGEDGRYERTNHTHSWNSNFVFTNLVLFHLQRHSDHHAFAKRPYQVLRHYDDSPQMPSGYAGMVVLALIPPLWRAVMDPKVRAYYAGEEFQLTAEQSERPAAS”, the protein production entry is reported as “failed”. For the sequence “MRLLVAFAVIYFISISPVCAENTASTINIPTPAIESPLASKSLLLDISLIGQEKLVTVGQHGHILLSNDGKKWQQANVPVQVTLTNVFFLNEQLGWAVGHDATILHSQDGGLNWQVQQYLPLLEKPLFDIYFKNPQQGIAVGAYGQVFRTNDGGSTWQNEFHQEILLADDVEYLNELKAEDEAAYLDEITFILPHFNRLVQDGGSLFLLGETGLLAKSDDFGLTWQQFDNFYQGSFFSLARTKTGNVLVAGLRGHVFRSLNHGSQWDEVPTNTTALLNDIVFANDERIFILGNNGMLLISTDDGESFSKIPQQDGKTLIAGVWFKGQLIAVSDVGIKVVDLSQE”, the protein production result is “failed”. Take “MKVIKGLTAGLIFLFLCACGGQQIKDPLNYEVEPFTFQNQDGKNVSLESLKGEVWLADFIFTNCETICPPMTAHMTDLQKKLKAGNIDVRIISFSVDPENDKPKQLKKFAANYPLSFDNWDFLTGYSQSEIEEFALKSFKAIVKKPEGEDQVIHQSSFYLVGPDGKVLKDYNGVENTPYDDIISDVKSASTLK”: the protein production entry is recorded as “not failed”.

As for “MLSIIVPSYNRKAEVPALLESLTQQTSSNFEVIIVDDCSKERVVVEQSYSFPVTVIRNETNQGAAESRNVGARTSKGDWLLFLDDDDCFMPEKCEKVLQVIEQNPNINFIYHPAKCEMVNEGFTYVTQPIEPQEISTERILLANKIGGMPMIAIKKEMFLKIGGLSTALRSLEDYDFLLKLLQEPSFTPYKINEPLTYCTFHTKRSSVSTDTTNTQKAIDYIREHYVKTVEQARNFDINASYILAYPHIMNLSRKAAKYYFDIFKKTKSIKQFIITLVILISPKLAINLKRLGK”, the protein production entry is reported as “failed”.

Consider “MRVRNRKGATELLEANPQYVVLNPLEAKAKWRDLFGNDNPIHVEVGSGKGAFVSGMAKQNPDINYIGIDIQKSVLSYALDKVLEVGVPNIKLLWVDGSDLTDYFEDGEIDRLYLNFSDPWPKKRHEKRRLTYKTFLDTFKRILPENGEIHFKTDNRGLFEYSLVSFSQYGMKLNGVWLDLHASDFEGNVMTEYEQKFSNKGQVIYRVEAEF”, for which the protein production entry is on record as “not failed”. The result for “MIVASRSPLPLAPPMLFPASDDDVPFDDAPRILLFTGKGGTGKTTCAAATAQHAARQGHKTLVLSSDPAHSLADALDQELGPEAREVRDRLFAQEVDLYYSMKKHWGHMRELMLTVFRWQGVDQIAAEELAALPGMNEGSVLLWLEEALREADYDLIVVDSAPTGETLTLLTLPQVTQWWLAKAFPFQKMAVKSLGFGVRKATGIPLDKGYEELEVIFEKLERVQQVLATPSTTSIRLVTNPEKMVIEEARRAFTYLQLYGYGVDSVVVNRVLPEEEVPADSFFEGYVESQREYLEEIEQSFRPLPILQVPHLGEEVFGAERLGRIGDAMYAERNPTDVFYDEPTFTVEEDGDAYVLNLRLAFATEADVDVRQLGDQLVVQVANQRSNVILPNFLNYYHMTNAALEEGWLRVRFTPDGEASSN” reads “failed”; that for “YLASDGKTIIYVGRNNLQNEELTFKMARKEELWFHAKDIPGSHVVISGNLDPSDAVKTDAAELAAYFSQGRLSNLVQVDMIEVKKLNK”, “failed”. With “MPALACVDTSFVPPAYAFSDTAGDVFIPASSPTSAAVVVDRWSPSLSSSLYRIDGWGAPYFIANSSGNISVRPHGSETLPHQDIDLLKIVKKVTGPKSSGGLGLQLPLIVRFPDVLKNRLECLQSAFDYAIKSQGYDSHYQGVYPVKCNQDRFVVEDIVKFGSSFRFGLEAGSKPEILLAMSCLCKGSPDAFLVCNGFKDAEYISLALLGRKLALNTVIVLEQEEELDLVIELSQKMNVRPVIGLRAKLRTKHSGHFGSTSGEKGKFGLTTTQIVRVVRKLRQSGMLDCLQLLHFHIGSQIPSTSLLSDGVAEAAQLYCELVRLGAHMKVIDIGGGLGIDYDGSKSGESDLSVAYSLEEYAEAVVASVRVVCDRSSVKHPVICSESGRAIVSHHSVLIFEAVSADKPMVHQATPGDIQFLLEGNEEARANYEDLYAAVMRGDHESCLLYVDQLKQRCVEGFKEGVLSIEQLASVDGLCEWVLKAIGASDPVHTYNINLSVFTSIPDLWGIDQLFPIVPIHKLDQRPGARGILSDLTCDSDGKINKFIGGESSLPLHELDKNGSGGRYFLGMFLGGAYEEALGGVHNLFGGPSVVRVSQSDGPHSFAVTRAVPGQSSADVLRAMQHEPELMFQTLKHRAEEMMHTKGGSEGENEEEEEDDEFNNVAASLDRSFHNMPYLATEQASPSNSLSAAISNLGFYYCDEDVYDYISA”, the protein production result is “failed”. Regarding “MGFYQGPDNRKITGGLKGKHRDKRKYEIGNPPTFTTLSAEDIRIKDRTLGGNFKVRLKYTTTANVLDPATNTAKKVKILEILETPANKELARRGIIIRGAKIRTEAGLAVVTSRPGQDGVINAVLLKNESQRSLEHHHHHH”, the protein production entry is on record as “failed”. For the sequence “MSDRDSWISNLGFVLAAVGGAAGLGNIWRFPWLTAGNGGSAFLIVYLLVVVGIGVPGLLAEFVLGRCGRQTPTAALRSLTGSRWGSWLGAFNVLTTLVILSFYSVVGGWILRYTLVSPVGTYFGQPQQYFGAMSFGLEAVAFHLLFLGIVAAIVFFGISNGIERVSKVMLPGVVIILLGLAVWTATQPGTAAGYAFYLSFDAEYLAANFLSVIGPAAGQALFTLSLGAGVMLTYASYLDDNASLPRDTLVIAVSNTFIGVLAGLVVIPLLFSQGVDPGQGGPGALFVALATAFATLPGGELVATAFFVTVLMAAVTSGISLLETPVATLVDSFGVPRRRATVLVSVLLAATGSGLALTSSVFQFVSGTLADLMLTVGLFAFTVIVGWLLRGDALAEFRAGTARFEWLAKPWLLTVSWVLPVVVLFLLTNTLASLAGISVGLGGRVIIAVIGTVALAVVVRNGSRTDRLSSH”, the protein production result is “failed”.

Turning to “YCKTIPMPDLAYSEISVIGKLIRALPEPCALHLANSSTVRYAQLFTVPPQVEICCNRGVNGIEGSLSTAIGYAAASSKLNFIIIGDLSFFYDMNALWNQNYGANIRILLLNNEGGEIFHTLPGMDKSSRSREFITAEHYTTAKGWAEERGFIYMKVTGEEELEEAMQPFTSPETRMQPMLLEVFTDKEKD”, the protein production result was “failed”.
